Reference: patent US11072647B2, “TGF-receptor II isoform, fusion peptide, methods of treatment and methods in vitro” (Onsejo Nacional DE Investigation Cientiticay Tecnica, priority 2013, dated 2021)

Test system: A549 cells
Test: MTT proliferation assay in transduced A549 cells with TGFβ-1
Format: cell-based, human
Experimental: Additionally, to check whether TβRII-SE acts as a TGFβ-1 agonist, A459 cells either overexpressing TβRII-SE or not (untransduced cells or UT) were incubated in the presence of increasing concentrations of TGFβ-1 (FIG. 10B). […] However, in cells overexpressing TβRII-SE, proliferation started to decrease at a TGFβ-1 concentration of 0.1 nM compared to the same cell line without the addition of TGF-β1.
A549 cells were transduced with lentiviral vectors at a multiplicity of infection (MOI) of 50 in the presence of 8 μg/ml polybrene. Percentage of eGFP positive cells was measured in a FACscalibur (Becton Dikinson) cytometer.
Cells were harvested, counted, and inoculated at the appropriate concentrations into 96-well plates using a multichannel pipette. After 24 hr, TGF-β1 (10 ng/ml and 20 ng/ml; Sigma) was added to the culture wells, and cultures were incubated for 24 hr and 48 hr at 37° C., under an atmosphere of 5% CO2. MTT (3-(4,5-dimethylthiazol-2-yl)-2,5-diphenyltetrazolium bromide) (Sigma) solution at a concentration of 5 mg/ml was added to the media and the cells were further incubated for 4 hr. After replacing 100 μl of supernatant with 100 μl of DMSO, the absorbance of each well was determined at 540 nm with a SEAC (Sirio S) photometer (Italy). The percentage of cell survival was defined as the relative absorbance of treated versus untreated cells.

B1: TβRII-SE: 80 amino acid soluble endogenous isoform of human TGF-β receptor II lacking the transmembrane domain, SEQ ID No. 2 (protein, listed as Homo sapiens)
chain: MGRGLLRGLWPLHIVLWTRIASTIPPHVQKSVNNDMIVTDNNGAVKFPQLCKFCDVRFSTCDNQKSCFSKVHYEGKKKAW
With B1 the “TGFβ-1 concentration at which proliferation started to decrease” value (cells overexpressing TβRII-SE, increasing TGFβ-1 concentrations (UT cells: 0.2 nM)) was 0.1 nM and the “cell proliferation (MTT)” value (transduced A549 cells, 0.4 nM TGFβ-1 vs untreated) was “proliferate significantly less than the same cells not treated with TGFβ-1”.
